Assay results from US12281340B2, “Method of producing N-acyl-amino group-containing compound” (AJINOMOTO CO., INC., priority 2018, dated 2025).

Columns and labels:
Type in all cases: biochemical
Set-up in all cases: key: +: Detected; −: Not detected
[1] = Synthesis of N-caprinoylamino acid using purified acylamino acid synthetase, UPLC-MS detection; conditions: +ATP
In short: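 Purified enzyme (50 μg) with 5 mM amino acid, 5 mM sodium caprate, 10 mM ATP, 10 mM MgCl2, 1 mM DTT in Tris-HCl pH 8.0, 24 h at 25° C; product detected by UPLC-MS (ESI-negative) as the N-caprinoyl amino acid mass signal.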

[2] = Synthesis of N-caprinoyl-amino acid derivative, N-caprinoyl-D-amino acid and N-caprinoyl-peptide using purified acylamino acid synthetase, UPLC-MS detection; conditions: +ATP
In short: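 Purified enzyme (50 μg/mL) was incubated with 5 mM sodium caprate, 5 mM amino acid derivative, D-amino acid or peptide, 10 mM ATP, 10 mM MgCl2 and 1 mM DTT in 50 mM Tris-HCl, pH 8.0, for 24 h at 25 °C. After acidic methanol stop, UPLC-MS looked for the mass of the N-caprinoyl product.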

[3] = Synthesis of N-acylamino acids from various fatty acids using purified acylamino acid synthetase, UPLC-MS detection
In short: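 Purified enzyme (200 μg/mL) with 5 mM amino acid, 5 mM sodium fatty acid (3 mM palmitate or stearate, plus 10% methanol), 10 mM ATP, 10 mM MgCl2, 1 mM DTT in 50 mM Tris-HCl pH 8.0, shaken 24 h at 25 °C. Amino acid varied by enzyme; product mass detected by UPLC-MS (ESI-negative).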

B1: SsGH3: GH3 auxin-responsive promoter superfamily from Synechococcus sp. PCC 7335, His-tagged (protein)
chain: MVIHTIPKEILDSVASTGDVFAYHLLRSTGDIGETVLQYLLCLAAKVNLTGIEQDTYNADKVQEQLLNDILRSENKTLYGKKYNFDSLNVDSFRSSLPLTSYENYRESIDNVVQTGNYSQLVSEPITLFQESSGTTGKVKLIPRTNKFTLSAMRAFQAIEAVVQSHFQNPSSSSQRVLALVNTSPTKLTPTGIPRGTGTSGGLNDALQKFKLANYLIDIKYSSPSPVFLISNTEAAYYCHLLFGLLDSDINDISANFAATVLNAMKILEKAWTQLVEDIRQGKLYAGLDIDEATRRELEIRLRANPERARELQAYFEEGFEGILPRIWPSLSCIQCITTGSMQLYTDALRYYSGTVPFFSGSYGASEAWIGVNLDPEREPPAFVVTPHTAFFEFIPQDAIDQEQSATVCLTDLKPGESYEVVVTNMSGLYRYRVGDVVRCVGYHHKSPMIEFMYRRQTLLNLFGEKVSEDVIYSALSTTLREFGMAIQDIDYTCRHEFEGTPWRYVVYLEPADYEGCSSQHEMVQQRLDEVLCNLSDRYRQLREVGSIGSLKLKLVREGTFSGLKTRLLSQEHSDSQFKMPRLLTETALISFMESSL
modifications: His-tag; Synechococcus PCC 7335
notes: GH3 auxin-responsive promoter superfamily from Synechococcus sp; PCC 7335, His-tagged
[1]; substrates GABA and sodium caprate
  signal of molecular weight corresponding to N-caprinoyl amino acid: −
[1]; substrates Gly and sodium caprate
  signal of molecular weight corresponding to N-caprinoyl amino acid: +
[1]; substrates L-Ala and sodium caprate
  signal of molecular weight corresponding to N-caprinoyl amino acid: +
[1]; substrates L-Arg and sodium caprate
  signal of molecular weight corresponding to N-caprinoyl amino acid: −
[1]; substrates L-Asn and sodium caprate
  signal of molecular weight corresponding to N-caprinoyl amino acid: −
[1]; substrates L-Asp and sodium caprate
  signal of molecular weight corresponding to N-caprinoyl amino acid: +
[1]; substrates L-Cys and sodium caprate
  signal of molecular weight corresponding to N-caprinoyl amino acid: −
[1]; substrates L-Gln and sodium caprate
  signal of molecular weight corresponding to N-caprinoyl amino acid: −
[1]; substrates L-Glu and sodium caprate
  signal of molecular weight corresponding to N-caprinoyl amino acid: −
[1]; substrates L-His and sodium caprate
  signal of molecular weight corresponding to N-caprinoyl amino acid: −
[1]; substrates L-Ile and sodium caprate
  signal of molecular weight corresponding to N-caprinoyl amino acid: +
[1]; substrates L-Leu and sodium caprate
  signal of molecular weight corresponding to N-caprinoyl amino acid: +
[1]; substrates L-Lys and sodium caprate
  signal of molecular weight corresponding to N-caprinoyl amino acid: −
[1]; substrates L-Met and sodium caprate
  signal of molecular weight corresponding to N-caprinoyl amino acid: +
[1]; substrates L-Phe and sodium caprate
  signal of molecular weight corresponding to N-caprinoyl amino acid: −
[1]; substrates L-Pro and sodium caprate
  signal of molecular weight corresponding to N-caprinoyl amino acid: −
[1]; substrates L-Ser and sodium caprate
  signal of molecular weight corresponding to N-caprinoyl amino acid: +
[1]; substrates L-Thr and sodium caprate
  signal of molecular weight corresponding to N-caprinoyl amino acid: −
[1]; substrates L-Trp and sodium caprate
  signal of molecular weight corresponding to N-caprinoyl amino acid: −
[1]; substrates L-Tyr and sodium caprate
  signal of molecular weight corresponding to N-caprinoyl amino acid: −
[1]; substrates L-Val and sodium caprate
  signal of molecular weight corresponding to N-caprinoyl amino acid: +
[1]; substrates β-Ala and sodium caprate
  signal of molecular weight corresponding to N-caprinoyl amino acid: +
[2]; substrates Carnosine and sodium caprate
  signal of molecular weight corresponding to N-caprinoyl compound: −
[2]; substrates D-Ala and sodium caprate
  signal of molecular weight corresponding to N-caprinoyl compound: +
[2]; substrates D-Asp and sodium caprate
  signal of molecular weight corresponding to N-caprinoyl compound: +
[2]; substrates D-Cys and sodium caprate
  signal of molecular weight corresponding to N-caprinoyl compound: −
[2]; substrates D-Glu and sodium caprate
  signal of molecular weight corresponding to N-caprinoyl compound: +
[2]; substrates D-Ile and sodium caprate
  signal of molecular weight corresponding to N-caprinoyl compound: −
[2]; substrates D-Lys and sodium caprate
  signal of molecular weight corresponding to N-caprinoyl compound: −
[2]; substrates L-Asp-L-Phe and sodium caprate
  signal of molecular weight corresponding to N-caprinoyl compound: −
[2]; substrates L-Gly-L-Gly and sodium caprate
  signal of molecular weight corresponding to N-caprinoyl compound: +
[2]; substrates Sarcosine and sodium caprate
  signal of molecular weight corresponding to N-caprinoyl compound: −
[2]; substrates Taurine and sodium caprate
  signal of molecular weight corresponding to N-caprinoyl compound: +
[3]; substrates L-Ala and Capric acid
  signal of molecular weight corresponding to N-acylamino acid: +
[3]; substrates L-Ala and Caproic acid
  signal of molecular weight corresponding to N-acylamino acid: +
[3]; substrates L-Ala and Caprylic acid
  signal of molecular weight corresponding to N-acylamino acid: +
[3]; substrates L-Ala and Lauric acid
  signal of molecular weight corresponding to N-acylamino acid: +
[3]; substrates L-Ala and Linoleic acid
  signal of molecular weight corresponding to N-acylamino acid: −
[3]; substrates L-Ala and Palmitic acid
  signal of molecular weight corresponding to N-acylamino acid: −
[3]; substrates L-Ala and myristic acid
  signal of molecular weight corresponding to N-acylamino acid: +
